The labels stand for the following.
B1: Protein pleiotropic regulatory locus 1 (Arabidopsis thaliana (Mouse-ear cress)), Q42384 (parent)
chain: MPAPTTEIEPIEAQSLKKLSLKSLKRSLELFSPVHGQFPPPDPEAKQIRLSHKMKVAFGGVEPVVSQPPRQPDRINEQPGPSNALSLAAPEGSKSTQKGATESAIVVGPTLLRPILPKGLNYTGSSGKSTTIIPANVSSYQRNLSTAALMERIPSRWPRPEWHAPWKNYRVIQGHLGWVRSVAFDPSNEWFCTGSADRTIKIWDVATGVLKLTLTGHIEQVRGLAVSNRHTYMFSAGDDKQVKCWDLEQNKVIRSYHGHLSGVYCLALHPTLDVLLTGGRDSVCRVWDIRTKMQIFALSGHDNTVCSVFTRPTDPQVVTGSHDTTIKFWDLRYGKTMSTLTHHKKSVRAMTLHPKENAFASASADNTKKFSLPKGEFCHNMLSQQKTIINAMAVNEDGVMVTGGDNGSIWFWDWKSGHSFQQSETIVQPGSLESEAGIYAACYDNTGSRLVTCEADKTIKMWKEDENATPETHPINFKPPKEIRRF
partner: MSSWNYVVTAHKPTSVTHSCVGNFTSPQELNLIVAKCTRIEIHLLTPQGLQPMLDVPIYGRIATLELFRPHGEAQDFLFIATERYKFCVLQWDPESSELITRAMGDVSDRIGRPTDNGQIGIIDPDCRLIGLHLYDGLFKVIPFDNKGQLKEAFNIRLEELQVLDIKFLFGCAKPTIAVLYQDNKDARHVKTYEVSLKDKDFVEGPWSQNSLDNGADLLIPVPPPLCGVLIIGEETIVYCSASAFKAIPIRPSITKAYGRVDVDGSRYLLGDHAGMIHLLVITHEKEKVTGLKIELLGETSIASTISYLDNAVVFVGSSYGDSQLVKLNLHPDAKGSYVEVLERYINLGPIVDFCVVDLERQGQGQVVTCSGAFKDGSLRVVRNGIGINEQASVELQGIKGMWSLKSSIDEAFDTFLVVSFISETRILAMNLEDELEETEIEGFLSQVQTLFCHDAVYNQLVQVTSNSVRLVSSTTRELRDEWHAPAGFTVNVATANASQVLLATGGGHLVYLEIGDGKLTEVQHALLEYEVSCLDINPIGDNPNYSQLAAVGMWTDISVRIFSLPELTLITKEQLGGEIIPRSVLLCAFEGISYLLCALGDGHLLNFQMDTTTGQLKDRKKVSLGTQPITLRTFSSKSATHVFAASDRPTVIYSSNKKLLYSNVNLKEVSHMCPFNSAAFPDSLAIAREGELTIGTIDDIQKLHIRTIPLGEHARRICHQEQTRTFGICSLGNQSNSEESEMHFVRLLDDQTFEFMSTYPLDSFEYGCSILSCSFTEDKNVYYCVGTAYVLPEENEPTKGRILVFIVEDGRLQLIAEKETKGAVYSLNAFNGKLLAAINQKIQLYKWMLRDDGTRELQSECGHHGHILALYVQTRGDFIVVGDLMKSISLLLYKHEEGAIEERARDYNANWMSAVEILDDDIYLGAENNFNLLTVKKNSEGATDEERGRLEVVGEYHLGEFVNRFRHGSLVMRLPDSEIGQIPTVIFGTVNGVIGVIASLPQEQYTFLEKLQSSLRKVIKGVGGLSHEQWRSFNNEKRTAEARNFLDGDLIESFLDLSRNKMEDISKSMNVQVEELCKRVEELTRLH

Variants of B1 are the subject of the experiment. The note with it: with ddb1a_arath DDB1A.
As for MPAPTTEIEPIEAQSLKKLSLKSLKRSLELFSPVHGQFPPPDPEAKQIRLSHKMKVAFGGVEPVVSQPPRQPDRINEQPGPSNALSLAAPEGSKSTQKGATESAIVVGPTLLRPILPKGLNYTGSSGKSTTIIPANVSSYQRNLSTAALMERIPSRWPRPEWHAPWKNYRVIQGHLGWVRSVAFDPSNEWFCTGSADRTIKIWDVATGVLKLTLTGHIEQVRGLAVSNRHTYMFSAGDDKQVKCWDLEQNKVIRSYHGHLSGVYCLALHPTLDVLLTGGRDSVCRVWDIHTKMQIFALSGHDNTVCSVFTRPTDPQVVTGSHDTTIKFWDLHYGKTMSTLTHHKKSVRAMTLHPKENAFASASADNTKKFSLPKGEFCHNMLSQQKTIINAMAVNEDGVMVTGGDNGSIWFWDWKSGHSFQQSETIVQPGSLESEAGIYAACYDNTGSRLVTCEADKTIKMWKEDENATPETHPINFKPPKEIRRF [R290H;R332H], the “effect of a mutation on the interaction” value is “decreasing interaction”.

Values taken from IntAct's records for PubMed 18223036.
